What was measured:
Assay in all cases: SEC-MALS; purified NACHOs; oligomeric state; conditions not given
[1] = target: tetrabrachion-stabilised recombinant N2 NA (NACHO) of A/PERTH/16/2009 (not stated | influenza A virus (H3N2) A/PERTH/16/2009)
[2] = target: tetrabrachion-stabilised recombinant N2 NA (NACHO) of A/POLAND/19B/2017 (not stated | influenza A virus (H3N2) A/POLAND/19B/2017)
[3] = target: tetrabrachion-stabilised recombinant N2 NA (NACHO) of A/TASMANIA/1018/2015 (not stated | influenza A virus (H3N2) A/TASMANIA/1018/2015)
[4] = target: tetrabrachion-stabilised recombinant N2 NA (NACHO) of A/HOKKAIDO/10H079/2011 (not stated | influenza A virus (H3N2) A/HOKKAIDO/10H079/2011)
[5] = target: tetrabrachion-stabilised recombinant N2 NA (NACHO) of A/STOCKHOLM/15/2014 (not stated | influenza A virus (H3N2) A/STOCKHOLM/15/2014)
[6] = target: tetrabrachion-stabilised recombinant N2 NA (NACHO) of A/NEWCALEDONIA/23/2016 (not stated | influenza A virus (H3N2) A/NEWCALEDONIA/23/2016)
[7] = target: tetrabrachion-stabilised recombinant N2 NA (NACHO) of A/ESTONIA/91621/2015 (not stated | influenza A virus (H3N2) A/ESTONIA/91621/2015)
[8] = target: tetrabrachion-stabilised recombinant N2 NA (NACHO) of A/OHIO/62/2012 (not stated | influenza A virus (H3N2) A/OHIO/62/2012)
[9] = target: tetrabrachion-stabilised recombinant N2 NA (NACHO) of A/HANOI/ELI15597/2015 (not stated | influenza A virus (H3N2) A/HANOI/ELI15597/2015)
[10] = target: tetrabrachion-stabilised recombinant N2 NA (NACHO) of A/ONTARIO/RV3236/2016 (not stated | influenza A virus (H3N2) A/ONTARIO/RV3236/2016)
[11] = target: tetrabrachion-stabilised recombinant N2 NA (NACHO) of A/NAGANO/2153/2017 (not stated | influenza A virus (H3N2) A/NAGANO/2153/2017)
[12] = target: tetrabrachion-stabilised recombinant N2 NA (NACHO) of A/WISCONSIN/16/2015 (not stated | influenza A virus (H3N2) A/WISCONSIN/16/2015)
[13] = target: tetrabrachion-stabilised recombinant N2 NA (NACHO) of A/GAMBIA/G0071436/2012 (not stated | influenza A virus (H3N2) A/GAMBIA/G0071436/2012)
[14] = target: tetrabrachion-stabilised recombinant N2 NA (NACHO) of A/INDIANA/18/2017 (not stated | influenza A virus (H3N2) A/INDIANA/18/2017)
[15] = target: tetrabrachion-stabilised recombinant N2 NA (NACHO) of A/HEILONGJIANGXIANGYANG/1134/2011 (not stated | influenza A virus (H3N2) A/HEILONGJIANGXIANGYANG/1134/2011)
[16] = target: tetrabrachion-stabilised recombinant N2 NA (NACHO) of A/HONGKONG/3089/2017 (not stated | influenza A virus (H3N2) A/HONGKONG/3089/2017)
[17] = target: tetrabrachion-stabilised recombinant N2 NA (NACHO) of A/INDIANA/08/2011 (not stated | influenza A virus (H3N2) A/INDIANA/08/2011)
[18] = target: tetrabrachion-stabilised recombinant N2 NA (NACHO) of A/TEHRAN/996/2012 (not stated | influenza A virus (H3N2) A/TEHRAN/996/2012)
[19] = target: tetrabrachion-stabilised recombinant N2 NA (NACHO) of A/XINJ…/1411/2012 (not stated | influenza A virus (H3N2) A/XINJ…/1411/2012)
[20] = target: tetrabrachion-stabilised recombinant N2 NA (NACHO) of A/MINNESOTA/11/2010 (not stated | influenza A virus (H3N2) A/MINNESOTA/11/2010)
[21] = target: tetrabrachion-stabilised recombinant N2 NA (NACHO) of A/DAKAR/14/2014 (not stated | influenza A virus (H3N2) A/DAKAR/14/2014)
[22] = target: tetrabrachion-stabilised recombinant N2 NA (NACHO) of A/STOCKHOLM/32/2014 (not stated | influenza A virus (H3N2) A/STOCKHOLM/32/2014)
[23] = target: tetrabrachion-stabilised recombinant N2 NA (NACHO) of A/ALASKA/251/2015 (not stated | influenza A virus (H3N2) A/ALASKA/251/2015)
[24] = target: tetrabrachion-stabilised recombinant N2 NA (NACHO) of A/SWITZERLAND/9715293/2013 (not stated | influenza A virus (H3N2) A/SWITZERLAND/9715293/2013)
[25] = target: tetrabrachion-stabilised recombinant N2 NA (NACHO) of A/UTAH/11/2011 (not stated | influenza A virus (H3N2) A/UTAH/11/2011)

## tetrabrachion-stabilised recombinant N2 NA (NACHO) of A/PERTH/16/2009 (enzyme)
[1]
  stoichiometry N: 4

## tetrabrachion-stabilised recombinant N2 NA (NACHO) of A/POLAND/19B/2017 (enzyme)
[2]
  stoichiometry N: 4

## tetrabrachion-stabilised recombinant N2 NA (NACHO) of A/TASMANIA/1018/2015 (enzyme)
[3]
  stoichiometry N: 4

## tetrabrachion-stabilised recombinant N2 NA (NACHO) of A/HOKKAIDO/10H079/2011 (enzyme)
[4]
  stoichiometry N: 4

## tetrabrachion-stabilised recombinant N2 NA (NACHO) of A/STOCKHOLM/15/2014 (enzyme)
[5]
  stoichiometry N: 4

## tetrabrachion-stabilised recombinant N2 NA (NACHO) of A/NEWCALEDONIA/23/2016 (enzyme)
[6]
  stoichiometry N: 4

## tetrabrachion-stabilised recombinant N2 NA (NACHO) of A/ESTONIA/91621/2015 (enzyme)
[7]
  stoichiometry N: 4

## tetrabrachion-stabilised recombinant N2 NA (NACHO) of A/OHIO/62/2012 (enzyme)
[8]
  stoichiometry N: 4

## tetrabrachion-stabilised recombinant N2 NA (NACHO) of A/HANOI/ELI15597/2015 (enzyme)
[9]
  stoichiometry N: 4

## tetrabrachion-stabilised recombinant N2 NA (NACHO) of A/ONTARIO/RV3236/2016 (enzyme)
[10]
  stoichiometry N: 4

## tetrabrachion-stabilised recombinant N2 NA (NACHO) of A/NAGANO/2153/2017 (enzyme)
[11]
  stoichiometry N: 4

## tetrabrachion-stabilised recombinant N2 NA (NACHO) of A/WISCONSIN/16/2015 (enzyme)
[12]
  stoichiometry N: 4

## tetrabrachion-stabilised recombinant N2 NA (NACHO) of A/GAMBIA/G0071436/2012 (enzyme)
[13]
  stoichiometry N: 4

## tetrabrachion-stabilised recombinant N2 NA (NACHO) of A/INDIANA/18/2017 (enzyme)
[14]
  stoichiometry N: 4

## tetrabrachion-stabilised recombinant N2 NA (NACHO) of A/HEILONGJIANGXIANGYANG/1134/2011 (enzyme)
[15]
  stoichiometry N: 4

## tetrabrachion-stabilised recombinant N2 NA (NACHO) of A/HONGKONG/3089/2017 (enzyme)
[16]
  stoichiometry N: 4

## tetrabrachion-stabilised recombinant N2 NA (NACHO) of A/INDIANA/08/2011 (enzyme)
[17]
  stoichiometry N: 4

## tetrabrachion-stabilised recombinant N2 NA (NACHO) of A/TEHRAN/996/2012 (enzyme)
[18]
  stoichiometry N: 4

## tetrabrachion-stabilised recombinant N2 NA (NACHO) of A/XINJ…/1411/2012 (enzyme)
[19]
  stoichiometry N: 4

## tetrabrachion-stabilised recombinant N2 NA (NACHO) of A/MINNESOTA/11/2010 (enzyme)
[20]
  stoichiometry N: 4

## tetrabrachion-stabilised recombinant N2 NA (NACHO) of A/DAKAR/14/2014 (enzyme)
[21]
  stoichiometry N: 4

## tetrabrachion-stabilised recombinant N2 NA (NACHO) of A/STOCKHOLM/32/2014 (enzyme)
[22]
  stoichiometry N: 4

## tetrabrachion-stabilised recombinant N2 NA (NACHO) of A/ALASKA/251/2015 (enzyme)
[23]
  stoichiometry N: 4

## tetrabrachion-stabilised recombinant N2 NA (NACHO) of A/SWITZERLAND/9715293/2013 (enzyme)
[24]
  stoichiometry N: 4

## tetrabrachion-stabilised recombinant N2 NA (NACHO) of A/UTAH/11/2011 (enzyme)
[25]
  stoichiometry N: 4
